Reference: article PMC12678531, “Cytosolic TOP3α facilitates mitochondrial DNA sensing by cGAS”

Molecular target: cGAS (Homo sapiens, UniProt Q8N884 1-522)
Assay: EMSA; 300 pmol protein, 50 pmol DNA in 10 uL; EMSA: Beyotime GS005 binding buffer, 37 C, 15 min, 10 uL, 6% PAGE in TBE at 4 C; extract pull-down: 50 mM Tris-HCl pH 7.5, 150 mM NaCl, 0.025% digitonin
Details: protein: recombinant; tags: C-terminal LE-6xHis; chain copies: 2; label: none for EMSA (GelRed stain); blunt

cGAS, sequence (Q8N884 whole entry): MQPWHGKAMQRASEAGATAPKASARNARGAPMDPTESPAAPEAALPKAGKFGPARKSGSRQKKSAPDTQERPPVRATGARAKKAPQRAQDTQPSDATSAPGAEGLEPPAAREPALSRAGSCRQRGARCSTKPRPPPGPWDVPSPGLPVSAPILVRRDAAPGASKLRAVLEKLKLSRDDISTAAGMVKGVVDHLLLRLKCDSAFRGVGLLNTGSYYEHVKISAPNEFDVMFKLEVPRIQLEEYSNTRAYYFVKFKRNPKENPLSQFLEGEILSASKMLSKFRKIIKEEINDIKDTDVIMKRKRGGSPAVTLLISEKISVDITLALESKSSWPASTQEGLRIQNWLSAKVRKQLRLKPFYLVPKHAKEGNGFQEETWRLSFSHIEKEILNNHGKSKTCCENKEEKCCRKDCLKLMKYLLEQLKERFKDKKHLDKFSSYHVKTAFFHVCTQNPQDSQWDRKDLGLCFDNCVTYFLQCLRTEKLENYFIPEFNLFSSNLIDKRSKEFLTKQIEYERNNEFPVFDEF

B1: DNA2 (30 bp) (dsDNA)
DNA 1: CCGAAACCAGACGAGCTACCTAAGAACAGC
DNA 2: GCTGTTCTTAGGTAGCTCGTCTGGTTTCGG
binding result: binds
